Consider 17 molecules from patent US20200115416A1 (REGENTS OF THE UNIVERSITY OF MINNESOTA, published 2020).

Read-outs that look alike come from different tables or passages of the source. Square brackets hold non-standard residues; d marks the D form. hPhe = N[C@@H](CCc1ccccc1)C(=O)O; Nle = CCCC[C@H](N)C(=O)O; Dap = NC[C@H](N)C(=O)O

Holding throughout (test): cell-based or functional assay
The target in assay [1] is T1, mouse melanocortin-1 receptor (mouse, UniProt Q01727 1-315).
Assay [2] addresses T2, mouse melanocortin-5 receptor (mouse, UniProt P41149 1-325).
Assay [3] concerns the target T1, mouse melanocortin-1 receptor. The source holds these as a separate data set.
Assay [4] concerns the target T3, mouse melanocortin-3 receptor (mouse, UniProt P33033 1-323).
Assay [5] addresses T4, mouse melanocortin-4 receptor (mouse, UniProt P56450 1-332).
The target in assay [6] is T3, mouse melanocortin-3 receptor. This is another data set of the same source.
Assay [7] addresses T2, mouse melanocortin-5 receptor. This is another data set of the same source.
Assay [8] addresses T4, mouse melanocortin-4 receptor. This is another data set of the same source.
Assay [9] has as its target T1, mouse melanocortin-1 receptor. The source holds these as a separate data set.

T2 sequence (P41149 whole entry): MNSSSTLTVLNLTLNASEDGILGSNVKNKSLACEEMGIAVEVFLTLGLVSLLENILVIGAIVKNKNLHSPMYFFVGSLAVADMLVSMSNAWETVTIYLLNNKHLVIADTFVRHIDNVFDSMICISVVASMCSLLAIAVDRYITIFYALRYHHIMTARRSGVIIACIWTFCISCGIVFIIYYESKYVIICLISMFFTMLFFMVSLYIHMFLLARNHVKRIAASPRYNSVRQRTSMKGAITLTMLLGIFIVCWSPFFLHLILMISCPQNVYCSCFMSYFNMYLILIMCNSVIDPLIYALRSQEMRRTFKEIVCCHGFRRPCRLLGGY
T3 sequence (P33033 whole entry): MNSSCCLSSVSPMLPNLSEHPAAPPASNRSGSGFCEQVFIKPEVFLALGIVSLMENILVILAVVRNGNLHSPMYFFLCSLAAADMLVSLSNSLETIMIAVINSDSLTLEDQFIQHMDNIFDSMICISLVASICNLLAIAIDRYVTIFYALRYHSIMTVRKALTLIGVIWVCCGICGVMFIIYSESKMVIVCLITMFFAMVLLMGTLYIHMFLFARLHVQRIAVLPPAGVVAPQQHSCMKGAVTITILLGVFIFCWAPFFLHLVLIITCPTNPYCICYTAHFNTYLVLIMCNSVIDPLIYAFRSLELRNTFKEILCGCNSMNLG
T4 sequence (P56450 whole entry): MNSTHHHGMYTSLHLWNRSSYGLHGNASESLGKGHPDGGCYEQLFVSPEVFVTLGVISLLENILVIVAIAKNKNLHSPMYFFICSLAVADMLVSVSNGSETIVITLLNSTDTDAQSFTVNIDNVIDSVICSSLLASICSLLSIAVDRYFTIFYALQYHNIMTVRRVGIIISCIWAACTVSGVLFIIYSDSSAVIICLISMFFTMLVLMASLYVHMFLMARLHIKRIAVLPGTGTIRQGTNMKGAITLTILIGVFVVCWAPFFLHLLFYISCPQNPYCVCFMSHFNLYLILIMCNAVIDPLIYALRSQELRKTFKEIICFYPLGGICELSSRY
T1 sequence (Q01727 whole entry): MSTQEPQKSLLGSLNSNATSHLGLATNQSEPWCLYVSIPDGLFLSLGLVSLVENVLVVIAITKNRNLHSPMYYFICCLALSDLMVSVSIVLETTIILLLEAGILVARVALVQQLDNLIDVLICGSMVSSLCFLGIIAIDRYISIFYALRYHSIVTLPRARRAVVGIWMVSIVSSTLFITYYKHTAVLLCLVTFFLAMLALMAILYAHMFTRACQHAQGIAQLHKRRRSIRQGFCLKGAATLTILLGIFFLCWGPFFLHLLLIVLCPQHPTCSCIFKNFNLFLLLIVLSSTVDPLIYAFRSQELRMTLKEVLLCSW

B1: c[Pro-Arg-Phe-DPhe-Asn-Ala-Phe-DPro] (peptide)
peptide: cyclo(PRF[dF]NAF[dP])
Consider B1, for which the “% maximal NDP-MSH response at 100 µM (cAMP AlphaScreen)” value in assay [1] worked out at 50%.

B2: c[Pro-Arg-DPhe-DPhe-Asn-Ala-Phe-DPro] (peptide)
peptide: cyclo(PR[dF][dF]NAF[dP])
Regarding B2, in assay [1], the “agonist EC50 (cAMP AlphaScreen)” value came out at 800 nM and the “partial agonist efficacy, % of NDP-MSH” value was 85%.

B3: c[Pro-Arg-Phe-Phe-Arg-Ala-Nle-DPro] (peptide)
peptide: cyclo(PRFFRA[Nle][dP])
SMILES: CCCC[C@@H]1NC(=O)[C@H](C)NC(=O)[C@H](CCCNC(=N)N)NC(=O)[C@H](Cc2ccccc2)NC(=O)[C@H](Cc2ccccc2)NC(=O)[C@H](CCCNC(=N)N)NC(=O)[C@@H]2CCCN2C(=O)[C@H]2CCCN2C1=O
Take B3: the “EC50 (cAMP AlphaScreen, inverse agonist)” value in assay [2] was more than 100000 nM. The “agonist EC50 (cAMP AlphaScreen)” value in [3] is more than 100000 nM. Also, the “antagonist pA2 (Schild, agonist NDP-MSH)” value in [4] is 7.5; in assay [5], 9.1.

B4: c[Pro-Arg-Phe-Phe-Leu-Ala-Phe-DPro] (peptide)
peptide: cyclo(PRFFLAF[dP])
SMILES: CC(C)C[C@@H]1NC(=O)[C@H](Cc2ccccc2)NC(=O)[C@H](Cc2ccccc2)NC(=O)[C@H](CCCNC(=N)N)NC(=O)[C@@H]2CCCN2C(=O)[C@H]2CCCN2C(=O)[C@H](Cc2ccccc2)NC(=O)[C@H](C)NC1=O
In the case of B4, in assay [6], the “agonist EC50 (cAMP AlphaScreen)” value is more than 100000 nM and the “antagonist pA2 (Schild, agonist NDP-MSH)” value came to 5.7. Moreover, in assay [7], the “inverse agonist apparent potency” value came out at 110 nM and the “inverse agonist, % decrease from basal cAMP” value is -20%. In assay [8], the “agonist EC50 (cAMP AlphaScreen)” value was more than 100000 nM and the “antagonist pA2 (Schild, agonist NDP-MSH)” value came out at 7.34. Besides, in assay [9], the “agonist EC50 (cAMP AlphaScreen)” value was more than 100000 nM.

B5: c[Pro-Arg-Phe-hPhe-Asn-Ala-Nle-DPro] (peptide)
peptide: cyclo(PRF[hPhe]NA[Nle][dP])
SMILES: CCCC[C@@H]1NC(=O)[C@H](C)NC(=O)[C@H](CC(N)=O)NC(=O)[C@H](CCc2ccccc2)NC(=O)[C@H](Cc2ccccc2)NC(=O)[C@H](CCCNC(=N)N)NC(=O)[C@@H]2CCCN2C(=O)[C@H]2CCCN2C1=O
Consider B5, for which the “EC50 (cAMP AlphaScreen, inverse agonist)” value in assay [2] was more than 100000 nM.

B6: c[Pro-Arg-DPhe-Phe-Asn-Ala-Phe-DPro] (peptide)
peptide: cyclo(PR[dF]FNAF[dP])
Regarding B6, in assay [1], the “agonist EC50 (cAMP AlphaScreen)” value was determined as 700 nM.

B7: c[Pro-Arg-Phe-Phe-Arg-Ala-Phe-DPro] (peptide)
peptide: cyclo(PRFFRAF[dP])
For B7, in assay [2], the “EC50 (cAMP AlphaScreen, inverse agonist)” value was more than 100000 nM. Further, in assay [3], the “agonist EC50 (cAMP AlphaScreen)” value was 600 nM and the “partial agonist, % receptor stimulation” value was found to be 25%. The “antagonist pA2 (Schild, agonist NDP-MSH)” value in assay [4] stood at 7.4. Further, in [5], the “antagonist pA2 (Schild, agonist NDP-MSH)” value is 8.7.

B8: c[Pro-Arg-Phe-Phe-Arg-Ser-Phe-DPro] (peptide)
peptide: cyclo(PRFFRSF[dP])
SMILES: N=C(N)NCCC[C@@H]1NC(=O)[C@H](Cc2ccccc2)NC(=O)[C@H](Cc2ccccc2)NC(=O)[C@H](CCCNC(=N)N)NC(=O)[C@@H]2CCCN2C(=O)[C@H]2CCCN2C(=O)[C@H](Cc2ccccc2)NC(=O)[C@H](CO)NC1=O
Consider B8, for which, in [2], the “EC50 (cAMP AlphaScreen, inverse agonist)” value is more than 100000 nM. Further, the “agonist EC50 (cAMP AlphaScreen)” value in [3] was more than 100000 nM. Also, the “antagonist pA2 (Schild, agonist NDP-MSH)” value came out at 7.1 in assay [4] and 9 in assay [5].

B9: c[Pro-DArg-DPhe-Phe-Asn-Ala-Phe-DPro] (peptide)
peptide: cyclo(P[dR][dF]FNAF[dP])
Regarding B9, in [1], the “agonist EC50 (cAMP AlphaScreen)” value was found to be 500 nM and the “partial agonist efficacy, % of NDP-MSH” value turned out to be 90%.

B10: c[Pro-Arg-Phe-Phe-Dap-Ser-Phe-DPro] (peptide)
peptide: cyclo(PRFF[Dap]SF[dP])
SMILES: N=C(N)NCCC[C@@H]1NC(=O)[C@@H]2CCCN2C(=O)[C@H]2CCCN2C(=O)[C@H](Cc2ccccc2)NC(=O)[C@H](CO)NC(=O)[C@H](CN)NC(=O)[C@H](Cc2ccccc2)NC(=O)[C@H](Cc2ccccc2)NC1=O
Take B10: the “EC50 (cAMP AlphaScreen, inverse agonist)” value in [2] is more than 100000 nM. In assay [3], the “agonist EC50 (cAMP AlphaScreen)” value was 600 nM. For the same molecule, the “partial agonist, % receptor stimulation” value in [3] is 85%. The “antagonist pA2 (Schild, agonist NDP-MSH)” value in assay [4] stood at 6.8; in assay [5], 9.1.

B11: c[Pro-Arg-Phe-Phe-Dap-Ser-Nle-DPro] (peptide)
peptide: cyclo(PRFF[Dap]S[Nle][dP])
SMILES: CCCC[C@@H]1NC(=O)[C@H](CO)NC(=O)[C@H](CN)NC(=O)[C@H](Cc2ccccc2)NC(=O)[C@H](Cc2ccccc2)NC(=O)[C@H](CCCNC(=N)N)NC(=O)[C@@H]2CCCN2C(=O)[C@H]2CCCN2C1=O
B11: in assay [2], the “EC50 (cAMP AlphaScreen, inverse agonist)” value is more than 100000 nM. Further, the “agonist EC50 (cAMP AlphaScreen)” value in assay [3] is more than 100000 nM. Further, the “antagonist pA2 (Schild, agonist NDP-MSH)” value stood at 6.5 in [4] and 9.1 in assay [5].

B12: c[Pro-DArg-Phe-Phe-Asn-Ala-Phe-DPro] (peptide)
peptide: cyclo(P[dR]FFNAF[dP])
For B12, the “% maximal NDP-MSH response at 100 µM (cAMP AlphaScreen)” value in assay [1] is 50%.

B13: c[Pro-Arg-Phe-Phe-Arg-Ser-Nle-DPro] (peptide)
peptide: cyclo(PRFFRS[Nle][dP])
SMILES: CCCC[C@@H]1NC(=O)[C@H](CO)NC(=O)[C@H](CCCNC(=N)N)NC(=O)[C@H](Cc2ccccc2)NC(=O)[C@H](Cc2ccccc2)NC(=O)[C@H](CCCNC(=N)N)NC(=O)[C@@H]2CCCN2C(=O)[C@H]2CCCN2C1=O
Regarding B13, in assay [2], the “EC50 (cAMP AlphaScreen, inverse agonist)” value is more than 100000 nM. Moreover, the “agonist EC50 (cAMP AlphaScreen)” value in [3] was more than 100000 nM. In addition, the figures for the “antagonist pA2 (Schild, agonist NDP-MSH)” value in assay [4] and in assay [5] were 7.1 and 9.6, respectively.

B14: c[Pro-DArg-DPhe-DPhe-Asn-Ala-Phe-DPro] (peptide)
peptide: cyclo(P[dR][dF][dF]NAF[dP])
Consider B14, for which, in assay [1], the “agonist EC50 (cAMP AlphaScreen)” value is 1300 nM and the “partial agonist efficacy, % of NDP-MSH” value turned out to be 85%.

B15: c[Pro-Arg-Phe-hPhe-Dap-Ala-Phe-DPro] (peptide)
peptide: PRFFXAFP
modifications: head-to-tail cyclic; hPhe at 4; Dap at 5; DPro at 8
In the case of B15, the “EC50 (cAMP AlphaScreen, inverse agonist)” value in assay [2] was more than 100000 nM. Besides, in assay [3], the “agonist EC50 (cAMP AlphaScreen)” value was 560 nM and the “partial agonist, % receptor stimulation” value was determined as 70%. The “antagonist pA2 (Schild, agonist NDP-MSH)” value in [4] turned out to be 7.1.

B16: c[Pro-Arg-Phe-Phe-Dap-Ala-Nle-DPro] (peptide)
peptide: cyclo(PRFF[Dap]A[Nle][dP])
SMILES: CCCC[C@@H]1NC(=O)[C@H](C)NC(=O)[C@H](CN)NC(=O)[C@H](Cc2ccccc2)NC(=O)[C@H](Cc2ccccc2)NC(=O)[C@H](CCCNC(=N)N)NC(=O)[C@@H]2CCCN2C(=O)[C@H]2CCCN2C1=O
B16: the “EC50 (cAMP AlphaScreen, inverse agonist)” value in assay [2] is more than 100000 nM. Besides, the “agonist EC50 (cAMP AlphaScreen)” value in [3] turned out to be 190 nM. Further, the “antagonist pA2 (Schild, agonist NDP-MSH)” value in [4] came out at 7.1; in assay [5], 9.

B17: c[Pro-Arg-Phe-Phe-Asn-Ser-Nle-DPro] (peptide)
peptide: cyclo(PRFFNS[Nle][dP])
SMILES: CCCC[C@@H]1NC(=O)[C@H](CO)NC(=O)[C@H](CC(N)=O)NC(=O)[C@H](Cc2ccccc2)NC(=O)[C@H](Cc2ccccc2)NC(=O)[C@H](CCCNC(=N)N)NC(=O)[C@@H]2CCCN2C(=O)[C@H]2CCCN2C1=O
Turning to B17, in assay [3], the “agonist EC50 (cAMP AlphaScreen)” value is 2600 nM and the “partial agonist, % receptor stimulation” value is 75%. In addition, the “antagonist pA2 (Schild, agonist NDP-MSH)” value in [4] came to 6.6. Besides, the “antagonist pA2 (Schild, agonist NDP-MSH)” value in assay [5] was found to be 8.5.
